Measured values published in article PMC8463545 (2021).

Experiments:
RpfG-MBP [1] = molecular target: T1, RpfG-MBP (Lysobacter enzymogenes); assay: SPR
T1 chain: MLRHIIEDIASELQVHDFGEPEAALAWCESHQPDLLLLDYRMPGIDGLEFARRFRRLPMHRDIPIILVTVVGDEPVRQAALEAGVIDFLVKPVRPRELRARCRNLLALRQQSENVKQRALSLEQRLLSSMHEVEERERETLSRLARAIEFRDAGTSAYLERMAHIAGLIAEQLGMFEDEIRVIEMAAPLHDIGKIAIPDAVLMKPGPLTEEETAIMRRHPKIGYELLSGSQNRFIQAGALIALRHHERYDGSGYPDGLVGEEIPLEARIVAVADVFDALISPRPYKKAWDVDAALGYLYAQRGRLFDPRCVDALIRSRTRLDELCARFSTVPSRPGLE

RpfG-MBP [2] = molecular target: T1, RpfG-MBP; assay: SPR

| Binder | Ka (RpfG-MBP [1]) [M⁻¹] | koff (RpfG-MBP [2]) [s⁻¹] |
| --- | --- | --- |
| HtsH2C-HA-His (domain or fragment, Phosphorylated as purified (CIAP-sensitive). Primers give (M)AKTRFL... to ...DAADAP (C-terminus). The candidate lists no features, so the start is estimated from the paralogues' fragment lengths and may be off by a few residues. Assignment of this entry to HtsH2 is inferred. The entry is probably not from strain OH11.) not shown | 3.34e+06 | 0.00129 |
| HtsH3C-Myc-His (domain or fragment, Phosphorylated as purified (CIAP-sensitive). Primers give (M)AKTRFL... to ...ARRGEG (C-terminus). Positions are inferred from the candidate's His-kinase domain start. Assignment of this entry to HtsH3 is inferred. The entry is probably not from strain OH11.) not shown | 5.96e+06 | 0.000738 |
| HtsH1C-Flag-His (domain or fragment, Phosphorylated as purified (CIAP-sensitive). Limits from the expression primers: (M)AKTRFL... to ...LFEREA, just before the His-kinase domain to the C-terminus. The start codon Met and Flag/His tags are left out. Positions are inferred from the candidate's domain features. The entry is probably not from strain OH11.) not shown | 1.5e+07 | 0.00118 |
